# Laboratory results as given in patent publication US20160052979.
# Key:
# Purα (PURA) = assay: EMSA; conditions: unit not stated, densitometry
# TZIP (synthetic) = system: T1, TZIP (synthetic); assay: EMSA; conditions: unit not stated, densitometry
# T1 sequence: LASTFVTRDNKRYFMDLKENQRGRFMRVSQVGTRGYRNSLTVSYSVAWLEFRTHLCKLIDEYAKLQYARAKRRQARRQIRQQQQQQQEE
substance,measurement,setting,value
ALS ssDNA (C9ORF72 GGGGCC hexanucleotide repeat),Kd,"Purα (PURA); 5 mM DTT, 5 mM EDTA, 0.5% Tween 20",16 nM
same,Kd,"TZIP (synthetic); printed 5.5×1010, exponent sign lost, 5 mM DTT, 5 mM EDTA, 0.5% Tween 20, TZIP alters Purα shift and stimulates …",0.55 nM
FXS ssDNA (FMR1 G-rich trinucleotide expanded repeat),Kd,"Purα (PURA); printed 1.9×109, exponent sign lost",1.9 nM
same,Kd,"TZIP (synthetic); printed 9.5×1010, exponent sign lost, TZIP stimulates Purα binding",0.95 nM
